# Test system: Escherichia coli TOP10
# Test: shrunken log2 fold change of peptide-encoding DNA abundance (4.5 h post-induction vs induction); higher = less antimicrobial activity (less host growth inhibition)
# Details: time post-induction: 4.5 h; library: site-saturation at positions 5, 18, 19, 20
# 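Also: peptides expressed intracellularly from a pBAD plasmid library in pooled LB shake-flask culture, induced with 0.3% L-arabinose, DNA abundance read by NGS, three biological replicates, DESeq2 with apeglm shrinkage.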
row,Sequence,shrunken log2 fold change
1,RRIRLRPPRLPRPRPRPFMMPRP,-0.449
2,RRIRARPPRLPRPRPRPGMAPRP,0.709
3,RRIRVRPPRLPRPRPRPDMCPRP,0.0884
4,RRIRRRPPRLPRPRPRPLKGPRP,-0.0966
5,RRIRLRPPRLPRPRPRPFYVPRP,-0.5
6,RRIRIRPPRLPRPRPRPQFYPRP,-0.945
7,RRIRGRPPRLPRPRPRPNKAPRP,0.454
8,RRIRCRPPRLPRPRPRPVGHPRP,0.0304
9,RRIRTRPPRLPRPRPRPWSSPRP,-0.241
10,RRIRNRPPRLPRPRPRPIPHPRP,0.134
11,RRIRARPPRLPRPRPRPPPNPRP,1.35
12,RRIRARPPRLPRPRPRPEQWPRP,0.0858
13,RRIRMRPPRLPRPRPRPVGLPRP,0.383
14,RRIRKRPPRLPRPRPRPGQWPRP,0.181
15,RRIRIRPPRLPRPRPRPKVMPRP,-0.206
16,RRIRIRPPRLPRPRPRPFSVPRP,-0.248
17,RRIRARPPRLPRPRPRPPDFPRP,0.708
18,RRIRSRPPRLPRPRPRPFMRPRP,0.0496
19,RRIRKRPPRLPRPRPRPYWEPRP,0.0616
20,RRIRKRPPRLPRPRPRPCWRPRP,0.183
21,RRIRFRPPRLPRPRPRPSRKPRP,-0.0267
22,RRIRGRPPRLPRPRPRPIDRPRP,0.127
23,RRIRERPPRLPRPRPRPNVHPRP,-0.344
24,RRIRFRPPRLPRPRPRPRFCPRP,0.00666
25,RRIRTRPPRLPRPRPRPQNGPRP,-0.456

row,Sequence,shrunken log2 fold change
1,RRIRVRPPRLPRPRPRPMFQPRP,-0.267
2,RRIRQRPPRLPRPRPRPITAPRP,-0.503
3,RRIRYRPPRLPRPRPRPIRTPRP,-0.258
4,RRIRFRPPRLPRPRPRPAKMPRP,0.207
5,RRIRMRPPRLPRPRPRPGEVPRP,0.884
6,RRIRIRPPRLPRPRPRPWVNPRP,-0.722
7,RRIRERPPRLPRPRPRPADHPRP,-0.0618
8,RRIRIRPPRLPRPRPRPDYKPRP,-0.231
9,RRIRQRPPRLPRPRPRPIHLPRP,-0.137
10,RRIRHRPPRLPRPRPRPSRNPRP,-0.134
11,RRIRNRPPRLPRPRPRPHRCPRP,-0.0136
12,RRIRCRPPRLPRPRPRPDNVPRP,-0.0772
13,RRIRPRPPRLPRPRPRPQAPPRP,-0.0721
14,RRIRNRPPRLPRPRPRPLNHPRP,-0.286
15,RRIRSRPPRLPRPRPRPWREPRP,0.0924
16,RRIRARPPRLPRPRPRPQSFPRP,-0.121
17,RRIRWRPPRLPRPRPRPSEAPRP,0.0701
18,RRIRVRPPRLPRPRPRPLVCPRP,-0.253
19,RRIRCRPPRLPRPRPRPKQQPRP,0.143
20,RRIRIRPPRLPRPRPRPVMQPRP,-0.00187
21,RRIRRRPPRLPRPRPRPGASPRP,0.665
22,RRIRSRPPRLPRPRPRPEFTPRP,0.171
23,RRIRPRPPRLPRPRPRPHFWPRP,0.482
24,RRIRERPPRLPRPRPRPLIGPRP,-0.0644
25,RRIRLRPPRLPRPRPRPNDAPRP,0.229

row,Sequence,shrunken log2 fold change
1,RRIRDRPPRLPRPRPRPHVCPRP,-0.00727
2,RRIRCRPPRLPRPRPRPNLEPRP,-0.267
3,RRIRMRPPRLPRPRPRPWTSPRP,0.0303
4,RRIRFRPPRLPRPRPRPLFDPRP,-0.578
5,RRIRQRPPRLPRPRPRPTTNPRP,-0.143
6,RRIRHRPPRLPRPRPRPTETPRP,0.146
7,RRIRFRPPRLPRPRPRPDEKPRP,-0.0935
8,RRIRKRPPRLPRPRPRPVLFPRP,0.327
9,RRIRCRPPRLPRPRPRPENLPRP,-0.0208
10,RRIRNRPPRLPRPRPRPPVVPRP,0.000966
11,RRIRQRPPRLPRPRPRPPHGPRP,1.06
12,RRIRRRPPRLPRPRPRPFHKPRP,0.0306
13,RRIRQRPPRLPRPRPRPAPCPRP,0.222
14,RRIRNRPPRLPRPRPRPSMEPRP,-0.118
15,RRIRIRPPRLPRPRPRPWIYPRP,-0.126
16,RRIRKRPPRLPRPRPRPARHPRP,1.9
17,RRIRHRPPRLPRPRPRPPDNPRP,-0.0231
18,RRIRCRPPRLPRPRPRPLASPRP,0.139
19,RRIRMRPPRLPRPRPRPITWPRP,-0.327
20,RRIRGRPPRLPRPRPRPTFLPRP,0.356
21,RRIRHRPPRLPRPRPRPEHHPRP,-0.0643
22,RRIRDRPPRLPRPRPRPTVTPRP,0.853
23,RRIRWRPPRLPRPRPRPEGCPRP,1.22
24,RRIRPRPPRLPRPRPRPRSTPRP,0.347
25,RRIRFRPPRLPRPRPRPFQDPRP,0.0171

row,Sequence,shrunken log2 fold change
1,RRIRERPPRLPRPRPRPMWCPRP,0.0762
2,RRIRGRPPRLPRPRPRPGCIPRP,0.445
3,RRIRMRPPRLPRPRPRPYCLPRP,0.146
4,RRIRWRPPRLPRPRPRPECNPRP,0.457
5,RRIRRRPPRLPRPRPRPCTDPRP,-0.115
6,RRIRVRPPRLPRPRPRPINFPRP,-0.458
7,RRIRVRPPRLPRPRPRPPPLPRP,0.669
8,RRIRLRPPRLPRPRPRPPMYPRP,-0.093
9,RRIRWRPPRLPRPRPRPSPDPRP,0.236
10,RRIRFRPPRLPRPRPRPYGCPRP,-0.531
11,RRIRARPPRLPRPRPRPNVYPRP,-0.115
12,RRIRVRPPRLPRPRPRPCDKPRP,-0.323
13,RRIRTRPPRLPRPRPRPRGFPRP,0.732
14,RRIRIRPPRLPRPRPRPKLYPRP,-0.33
15,RRIRDRPPRLPRPRPRPAKVPRP,0.114
16,RRIRVRPPRLPRPRPRPIPMPRP,-0.094
17,RRIRYRPPRLPRPRPRPMFPPRP,-0.463
18,RRIRQRPPRLPRPRPRPPFKPRP,-0.0455
19,RRIRGRPPRLPRPRPRPMDDPRP,0.994
20,RRIRHRPPRLPRPRPRPNVEPRP,-0.063
21,RRIRERPPRLPRPRPRPAVHPRP,-0.144
22,RRIRHRPPRLPRPRPRPPTCPRP,0.0978
23,RRIRGRPPRLPRPRPRPTNYPRP,1.07
24,RRIRCRPPRLPRPRPRPFDQPRP,-0.136
25,RRIRPRPPRLPRPRPRPGDPPRP,0.364

row,Sequence,shrunken log2 fold change
1,RRIRRRPPRLPRPRPRPQRIPRP,-0.00231
2,RRIRFRPPRLPRPRPRPYYTPRP,-0.369
3,RRIRDRPPRLPRPRPRPAKLPRP,0.0322
4,RRIRIRPPRLPRPRPRPGNNPRP,-0.00577
5,RRIRTRPPRLPRPRPRPTYPPRP,0.0247
6,RRIRARPPRLPRPRPRPPTYPRP,0.0408
7,RRIRERPPRLPRPRPRPYIAPRP,-0.946
8,RRIRSRPPRLPRPRPRPEELPRP,0.176
9,RRIRDRPPRLPRPRPRPHKSPRP,-0.17
10,RRIRNRPPRLPRPRPRPAYAPRP,-0.236
11,RRIRDRPPRLPRPRPRPNQLPRP,-0.0966
12,RRIRERPPRLPRPRPRPYNSPRP,-0.0287
13,RRIRVRPPRLPRPRPRPEFGPRP,0.177
14,RRIRSRPPRLPRPRPRPAFAPRP,0.414
15,RRIRNRPPRLPRPRPRPWVYPRP,-0.0702
16,RRIRDRPPRLPRPRPRPVCIPRP,0.0226
17,RRIRHRPPRLPRPRPRPYHTPRP,-0.132
18,RRIRMRPPRLPRPRPRPIVWPRP,-0.0994
19,RRIRYRPPRLPRPRPRPFATPRP,-0.49
20,RRIRSRPPRLPRPRPRPIWHPRP,-0.271
21,RRIRMRPPRLPRPRPRPAPVPRP,0.764
22,RRIRWRPPRLPRPRPRPLWRPRP,3.71
23,RRIRQRPPRLPRPRPRPHNSPRP,-0.596
24,RRIRRRPPRLPRPRPRPSVTPRP,-0.041
25,RRIRCRPPRLPRPRPRPCEMPRP,-0.151

row,Sequence,shrunken log2 fold change
1,RRIRHRPPRLPRPRPRPGGHPRP,0.125
2,RRIRARPPRLPRPRPRPDDYPRP,-0.0457
3,RRIRCRPPRLPRPRPRPYMFPRP,-1.01
4,RRIRCRPPRLPRPRPRPLCDPRP,0.54
5,RRIRFRPPRLPRPRPRPGFEPRP,-0.0266
6,RRIRNRPPRLPRPRPRPWIEPRP,-0.042
7,RRIRYRPPRLPRPRPRPTRAPRP,0.144
8,RRIRSRPPRLPRPRPRPTYRPRP,-0.195
9,RRIRTRPPRLPRPRPRPMAGPRP,-0.109
10,RRIRDRPPRLPRPRPRPIPMPRP,-0.00947
11,RRIRVRPPRLPRPRPRPYMPPRP,-0.78
12,RRIRERPPRLPRPRPRPHRYPRP,0.0893
13,RRIRCRPPRLPRPRPRPQQAPRP,0.239
14,RRIRFRPPRLPRPRPRPEERPRP,0.477
15,RRIRARPPRLPRPRPRPSYRPRP,-0.228
16,RRIRDRPPRLPRPRPRPPHQPRP,-0.022
17,RRIRSRPPRLPRPRPRPKDWPRP,0.21
18,RRIRDRPPRLPRPRPRPMYRPRP,-0.0107
19,RRIRRRPPRLPRPRPRPYVTPRP,-0.383
20,RRIRQRPPRLPRPRPRPHWSPRP,-0.161
21,RRIRIRPPRLPRPRPRPEDLPRP,-0.00555
22,RRIRYRPPRLPRPRPRPSTIPRP,-0.324
23,RRIRTRPPRLPRPRPRPDFTPRP,-0.0888
24,RRIRNRPPRLPRPRPRPYFQPRP,-0.317
25,RRIRTRPPRLPRPRPRPGGNPRP,-0.264
